Assay [1] has as its target T1, human pIgR, full-length, on cells (human, UniProt P01833 19-764). The assay is described as follows: cell-based or functional assay.
The target in assay [2] is T1, human pIgR, full-length, on cells. The experiment in a line: flow cytometry on MDCK-hpIgR cells. In general terms: Flow cytometry measures light scatter and fluorescence of single cells or particles in a stream.
Method: Flow Cytometry was performed as follows. To test whether VHH-mono-Fc molecules recognize cell-surface hpIgR, Madin-Darby canine kidney (MDCK) cells engineered to express full-length hpIgR were used. Cells were cultured in Dulbecco's modified Eagle's medium containing 10% fetal calf serum at 37° C. with 5% CO₂. Cells were split into equal fractions (≈70,000 cells) and incubated with increasing concentrations of VHH-mono-Fc molecules for 30 min at 4 C. […] Cells were washed twice with cold staining buffer, resuspended in running buffer and analyzed with an iQue Screener (IntelliCyt Corporation). Binding was assessed by RL1 (A647) Geomeans from the live cell population and EC50 was calculated by fitting log VHH concentration versus MFI in Prism (Graphpad).
The target in assay [3] is T2, human pIgR extracellular domain (ECD) (human, UniProt P01833 19-638).
T2 construct: also called hpIgR ECD
The experiment in a line: BLI, relative to full-length hpIgR ECD. (In general: In BLI a coated tip is dipped into the sample, and binding shifts an interference pattern.)
Target sequence in this assay (P01833 other isoform, or with tags, fused parts or gaps): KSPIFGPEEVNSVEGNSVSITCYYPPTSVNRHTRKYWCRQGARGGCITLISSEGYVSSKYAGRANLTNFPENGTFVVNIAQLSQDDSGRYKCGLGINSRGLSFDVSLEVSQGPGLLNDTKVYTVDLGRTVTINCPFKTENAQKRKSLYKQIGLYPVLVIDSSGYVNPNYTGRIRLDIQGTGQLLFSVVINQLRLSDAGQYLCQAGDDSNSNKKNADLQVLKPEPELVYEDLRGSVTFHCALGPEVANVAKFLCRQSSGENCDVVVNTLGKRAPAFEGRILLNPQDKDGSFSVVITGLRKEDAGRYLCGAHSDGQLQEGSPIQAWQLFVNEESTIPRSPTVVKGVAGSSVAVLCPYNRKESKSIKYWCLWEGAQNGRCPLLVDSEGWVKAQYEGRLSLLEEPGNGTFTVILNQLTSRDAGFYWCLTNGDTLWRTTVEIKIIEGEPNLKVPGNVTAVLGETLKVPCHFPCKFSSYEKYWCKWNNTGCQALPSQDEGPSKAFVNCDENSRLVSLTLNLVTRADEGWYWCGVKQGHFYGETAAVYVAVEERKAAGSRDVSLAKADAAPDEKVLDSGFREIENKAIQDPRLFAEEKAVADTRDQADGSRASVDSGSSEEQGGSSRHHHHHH
Method: (§1) Bio-layer Interferometry was performed as follows. […] Data were collected with Octet Data Acquisition version 7.1.0.87 (ForteBio) and analyzed using Octet Data Analysis version 7.1 (ForteBio). To measure binding kinetics between VHH-mono-Fc molecules and HIS-tagged pIgR proteins, VHH-mono-Fc was immobilized on amine-reactive generation-2 (ARG2) biosensors according to manufacturer's instructions and increasing concentrations of pIgR proteins were exposed to sensor-immobilized VHH. In some cases, HIS-tagged pIgR proteins were immobilized on anti-HIS biosensors and exposed to increasing concentrations of VHH-mono-Fc molecules. Association and dissociation rates were measured by the shift in wavelength (nm). […] All reactions were performed at 25° C. in PBS.
(§2) (Full-length hpIgR ECD was purchased from R&D Systems.) The five constructs (D1-D2, D1, D1_tCDR1, D1_tCDR2, D1_tCDR3) were expressed and purified from HEK293 cells using immobilized metal ion affinity chromatography. Three hpIgR domain-1 CDR mutants (D1_tCDR1, D1_tCDR2, D1_tCDR3) contain respective teleost fish CDR on a hpIgR domain-1 framework. His-tagged pIgR constructs were immobilized on anti-HIS biosensors and binding of VHH-mono-Fc molecules to pIgR constructs were measured by bio-layer interferometry.

For assay [4], the target named is T3, human pIgR extracellular domain 1 (D1) (human, UniProt P01833 19-127).
T3 construct: HIS-tagged construct made in HEK293 cells; also called hpIgR domain-1
The experiment in a line: BLI, relative to full-length hpIgR ECD.
Target sequence in this assay (P01833 other isoform, or with tags, fused parts or gaps limits assumed): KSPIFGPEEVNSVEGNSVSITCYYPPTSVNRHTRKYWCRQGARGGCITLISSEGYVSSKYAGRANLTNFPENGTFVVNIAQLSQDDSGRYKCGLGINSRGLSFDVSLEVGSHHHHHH
Method: as §1, §2

In assay [5] the target is T4, human pIgR extracellular domain 1-domain 2 (D1-D2) (human, UniProt P01833 19-240).
T4 construct: HIS-tagged construct made in HEK293 cells
The experiment in a line: BLI, relative to full-length hpIgR ECD.
Target sequence in this assay (P01833 other isoform, or with tags, fused parts or gaps limits assumed): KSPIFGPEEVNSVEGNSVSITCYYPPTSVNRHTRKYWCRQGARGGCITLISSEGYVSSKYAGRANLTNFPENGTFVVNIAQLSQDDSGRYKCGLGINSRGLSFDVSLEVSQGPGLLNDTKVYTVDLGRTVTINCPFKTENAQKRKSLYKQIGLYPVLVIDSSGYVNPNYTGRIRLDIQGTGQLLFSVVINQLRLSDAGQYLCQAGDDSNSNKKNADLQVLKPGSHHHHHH
Method: as §1, §2

Assay [6] concerns the target T5, hpIgR domain-1 with teleost fish CDR1 (hD1 tCDR1) (human, UniProt P01833 19-127, limits assumed).
T5 construct: CDR-swapped hpIgR domain-1 mutant, HIS-tagged, made in HEK293 cells; not shown: HIS tag
The assay is described as follows: BLI, relative to full-length hpIgR ECD.
Target sequence in this assay (P01833 other isoform, or with tags, fused parts or gaps limits assumed): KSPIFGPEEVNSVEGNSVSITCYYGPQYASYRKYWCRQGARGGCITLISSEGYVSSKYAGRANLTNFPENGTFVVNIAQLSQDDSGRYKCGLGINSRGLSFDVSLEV

Assay [7] concerns the target T6, hpIgR domain-1 with teleost fish CDR3 (hD1 tCDR3) (human, UniProt P01833 19-127, limits assumed).
T6 construct: CDR-swapped hpIgR domain-1 mutant, HIS-tagged, made in HEK293 cells; not shown: HIS tag
The assay is described as follows: BLI, relative to full-length hpIgR ECD.
Target sequence in this assay (P01833 other isoform, or with tags, fused parts or gaps limits assumed): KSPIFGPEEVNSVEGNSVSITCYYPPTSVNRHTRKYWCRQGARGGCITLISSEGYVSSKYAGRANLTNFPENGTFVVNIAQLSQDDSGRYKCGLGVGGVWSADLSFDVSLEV

Assay [8] concerns the target T2, human pIgR extracellular domain (ECD). The experiment in a line: BLI (Octet), VHH-mono-Fc and hpIgR ectodomain.
Target sequence in this assay (P01833 other isoform, or with tags, fused parts or gaps): as the sequence (P01833 other isoform, or with tags, fused parts or gaps) above
Assay [9] shares this target. The experiment in a line: ECL (MSD), hpIgR-ECD coated, anti-Fc detection.
Method: (§3) To check whether VHH recognizes a buried epitope on pIgR, EC₅₀ values were measured for VHH-mono-Fc molecules binding to hpIgR-ECD protein by electrochemiluminescence using two different detection antibodies, an anti-Fc antibody and an anti-VHH antibody. pIgR ECD (10 μg/ml in PBS) was coated on high-bind MSD plates for 2 hours at RT with 1000 rpm, incubated with blocking buffer for 1 hour at RT, incubated with VHH-mono-Fc molecules (increasing concentrations in PBS) for 2 hours at RT with 1000 rpm, washed 3× with PBT, incubated with ruthenylated secondary antibody (2 μg/ml in PBS) for 1 hour at RT with 1000 rpm, washed 3× with PBT and read plates in 40 ul reading buffer using the MSD imager. EC50 was calculated by fitting log VHH concentration versus log ECLU in Prism (Graphpad). The increase in EC₅₀ (>50-fold) due to anti-VHH detection was used as a measure to determine whether VHH recognized buried epitope on pIgR.
The target is the same in assay [10]. The assay is described as follows: ECL (MSD), hpIgR-ECD coated, anti-VHH detection.
Target sequence in this assay (P01833 other isoform, or with tags, fused parts or gaps): as above
The target in assay [11] is T7, hpIgR domain-1 with teleost fish CDR2 (hD1 tCDR2) (human, UniProt P01833 19-127, limits assumed).
T7 construct: CDR-swapped hpIgR domain-1 mutant, HIS-tagged, made in HEK293 cells; not shown: HIS tag
T7 chain: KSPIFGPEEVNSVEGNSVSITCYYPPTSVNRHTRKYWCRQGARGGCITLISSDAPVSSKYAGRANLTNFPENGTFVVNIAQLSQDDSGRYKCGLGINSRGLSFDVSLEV
The experiment in a line: BLI, HIS-tagged construct on anti-HIS biosensors.

For assay [12], the target named is T3, human pIgR extracellular domain 1 (D1). The assay is described as follows: ratio of the second to the first EC50 column.
Assay [13] addresses T4, human pIgR extracellular domain …. The assay is described as follows: ratio of the second to the first EC50 column.
The target of assay [14] is T3, human pIgR extracellular domain 1 (D1). The experiment in a line: BLI, HIS-tagged pIgR construct on anti-HIS biosensors.
Method: as §1, §2
In assay [15] the target is T4, human pIgR extracellular domain …. Described as above.
Method: as §1, §2
The target in assay [16] is T5, hpIgR domain-1 with teleost fish CDR1 …. The assay is described as above.
Method: as §1, §2
The target of assay [17] is T6, hpIgR domain-1 with teleost fish CDR3 …. The assay is described as above.
Method: as §1, §2
The target of assay [18] is T2, human pIgR extracellular domain (ECD). The experiment in a line: ECL (MSD), anti-VHH detection against anti-Fc detection.
Target sequence in this assay (P01833 other isoform, or with tags, fused parts or gaps): as the sequence (P01833 other isoform, or with tags, fused parts or gaps) above
Method: as §3
Assay [19] concerns the target T3, human pIgR extracellular domain 1 (D1). The assay is described as follows: ECL (MSD), Log ECLU against Log [VHH] nM, anti-Fc detection (first EC50 column).
For assay [20], the target named is T4, human pIgR extracellular domain …. Described as above.
For another assay, the target named is T8, hpIgR_D2-D3.
T8 construct: HIS-tagged construct from HEK293 cells; also called human pIgR extracellular domain 2-domain 3 (D2-D3); hD2-D3
T8 HIS-tagged domain construct: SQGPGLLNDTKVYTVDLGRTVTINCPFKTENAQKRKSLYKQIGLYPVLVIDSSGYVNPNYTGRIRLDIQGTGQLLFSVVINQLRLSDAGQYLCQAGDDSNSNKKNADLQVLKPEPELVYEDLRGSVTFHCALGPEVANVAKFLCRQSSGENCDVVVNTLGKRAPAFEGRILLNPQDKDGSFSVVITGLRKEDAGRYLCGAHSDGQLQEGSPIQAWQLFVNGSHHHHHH
The experiment in a line: ECL (MSD) heat map, HIS-tagged construct captured via anti-HIS, anti-human-Fc detection.

The target in assay [21] is T3, human pIgR extracellular domain 1 (D1). The experiment in a line: ECL (MSD); headed 'Anti-Fc' on the sheet, but its ECD values are the anti-VHH values of Table 2, so anti-VHH detection.
The target in assay [22] is T4, human pIgR extracellular domain …. The description is as above.

2 molecules from patent publication US20220324970A1 (Janssen / Centocor, published 2022) can be followed below.

One may read the EC50 as the concentration needed to bring the measured effect to its halfway point. A low value points to higher potency in that assay. The Kd is the concentration at which binding is half-saturated. A high value points to weaker binding.

T1 sequence (P01833 19-764): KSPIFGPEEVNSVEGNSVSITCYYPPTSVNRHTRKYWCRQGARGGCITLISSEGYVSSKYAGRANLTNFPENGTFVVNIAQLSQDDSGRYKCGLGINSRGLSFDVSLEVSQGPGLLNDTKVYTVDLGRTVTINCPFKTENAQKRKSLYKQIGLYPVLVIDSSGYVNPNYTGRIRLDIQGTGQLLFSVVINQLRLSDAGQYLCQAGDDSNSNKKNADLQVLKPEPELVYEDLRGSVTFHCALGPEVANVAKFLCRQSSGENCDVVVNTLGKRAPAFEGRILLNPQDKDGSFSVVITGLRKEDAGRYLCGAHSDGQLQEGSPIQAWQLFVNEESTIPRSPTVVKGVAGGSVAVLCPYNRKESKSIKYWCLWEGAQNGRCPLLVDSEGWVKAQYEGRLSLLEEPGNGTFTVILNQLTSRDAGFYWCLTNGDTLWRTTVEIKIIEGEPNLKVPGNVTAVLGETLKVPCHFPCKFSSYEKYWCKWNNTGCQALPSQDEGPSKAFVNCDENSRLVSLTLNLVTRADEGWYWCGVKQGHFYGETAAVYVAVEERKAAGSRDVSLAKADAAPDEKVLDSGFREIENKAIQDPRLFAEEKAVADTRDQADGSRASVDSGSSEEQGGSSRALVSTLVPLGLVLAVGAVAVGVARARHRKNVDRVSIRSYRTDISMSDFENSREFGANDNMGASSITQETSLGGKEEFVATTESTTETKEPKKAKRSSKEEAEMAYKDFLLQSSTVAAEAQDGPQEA

B1: VHH2-linker-mono-Fc protein (Fc fusion)
chain: EVQVVESGGGLVQAGGSLKLACAAPGLTFSSYRMGWFRQAPGQEREFVAAIDWNGRGTYYRYYADSVKGRSTISRDNAKNTVYLQMNSLKPEDTAVYYCAATTVLTDPRVLNEYATWGQGTQVTVSSEPKTPKPQPQPQLQPQPNPTTESKSPKSPAPELLGGPSVFLFPPKPKDTLMISRTPEVTCVVVDVSHEDPEVKFNWYVDGVEVHNAKTKPREEQYNSTYRVVSVLTVLHQDWLNGKEYKCKVSNKALPAPIEKTISKAKGQPREPQVYTKPPSREEMTKNQVSLSCLVKGFYPSDIAVEWESNGQPENNYKTTVPVLDSDGSFRLASYLTVDKSRWQQGNVFSCSVMHEALHNHYTQKSLSLSPGK
notes: also called VHH2-mono-Fc; mpIgR_338
As to B1, the “For. Trans. (Fold Incr.)” value in [1] was determined as 21 fold. Further, in assay [1], the “Rev. Trans (Fold Incr.)” value turned out to be 5.7 fold. Further, the EC50 in assay [2] was found to be 6.3 nM; in assay [9], 4.2 nM; in assay [10] it was 4 nM; in assay [19], 6.8 nM; in assay [20], 1.5 nM; in assay [21], 8.1 nM. Also, a half-maximal response in [22] (EC50) required 1.8 nM. The “Fold change in KD” value was determined as 1 fold in [3]; 0.7 fold in assay [4]; 1 fold in assay [5]; 1 fold in [6]; 0.7 fold in assay [7]. The Kd worked out at 21 nM in [8]; 15.5 nM in [14]; 23 nM in [15]; 21.3 nM in [16]; 14.9 nM in assay [17]. Besides, the binding result in assay [11] was “no binding”; with hpIgR_D2-D3, “no binding (tested: 100 ug/ml (single concentration))”. In addition, the Fold change in assay [12] and in assay [13] was 1.2 each time. For the same molecule, the “Fold change in EC50” value in [18] was found to be 1 fold.

B2: VHH3-linker-mono-Fc protein (Fc fusion)
chain: QLQLVESGGGLVQPGGSLRLSCAASGSIFSINVMGWYRQAPGKQRELVARINGGGITHYAESVKGRFTISRDNAKNTVYLQMNSLKPEDTAAYYCKADVFGSSGYVETYWGQGTQVTVSSEPKTPKPQPQPQLQPQPNPTTESKSPKSPAPELLGGPSVFLFPPKPKDTLMISRTPEVTCVVVDVSHEDPEVKFNWYVDGVEVHNAKTKPREEQYNSTYRVVSVLTVLHQDWLNGKEYKCKVSNKALPAPIEKTISKAKGQPREPQVYTKPPSREEMTKNQVSLSCLVKGFYPSDIAVEWESNGQPENNYKTTVPVLDSDGSFRLASYLTVDKSRWQQGNVFSCSVMHEALHNHYTQKSLSLSPGK
notes: made in CHO cells; also called VHH3-mono-Fc; hpIgR_021
Take B2: the “For. Trans. (Fold Incr.)” value in assay [1] worked out at 1 fold. The “Rev. Trans (Fold Incr.)” value in assay [1] stood at 1 fold. In addition, the EC50 stood at 6.4 nM in [2]; 0.5 nM in [9]; 28.6 nM in assay [10]; 3.1 nM in assay [19]; 1.2 nM in assay [20]; 17.6 nM in [21]. In assay [22], this molecule yielded an EC50 of 13.7 nM. In addition, the “Fold change in KD” value in assay [3] is 1 fold; in [4], 0.8 fold; in assay [5] it was 1.3 fold; in assay [6] it was 7.7 fold; in assay [7], 0.8 fold. In addition, the Kd turned out to be 5 nM in assay [8]; 7.7 nM in assay [14]; 13.3 nM in assay [15]; 77 nM in assay [16]; 7.5 nM in [17]. In addition, the binding result is “no binding” in assay [11] and “no binding (tested: 100 ug/ml (single concentration))” with hpIgR_D2-D3. Also, the figures for the Fold change in [12] and in assay [13] were 5.7 and 11.9, respectively. Moreover, in assay [18], the “Fold change in EC50” value is 54 fold.
